Laboratory results from article doi:10.1101/2020.01.09.899195 (bioRxiv, 2020).

T1: MinD(R3E) (Escherichia coli, UniProt P0AEZ3 1-270, R3E)
T1 sequence (looked up): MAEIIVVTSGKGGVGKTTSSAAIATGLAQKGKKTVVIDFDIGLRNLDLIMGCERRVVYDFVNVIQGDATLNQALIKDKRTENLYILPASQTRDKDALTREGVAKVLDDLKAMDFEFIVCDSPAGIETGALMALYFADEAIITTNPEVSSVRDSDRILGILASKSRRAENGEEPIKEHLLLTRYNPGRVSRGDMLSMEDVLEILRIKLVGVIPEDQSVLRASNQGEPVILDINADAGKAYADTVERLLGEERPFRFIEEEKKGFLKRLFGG

B1: MinC (natural protein, Escherichia coli, UniProt P18196 1-231, looked up)
chain: MSNTPIELKGSSFTLSVVHLHEAEPKVIHQALEDKIAQAPAFLKHAPVVLNVSALEDPVNWSAMHKAVSATGLRVIGVSGCKDAQLKAEIEKMGLPILTEGKEKAPRPAPTPQAPAQNTTPVTKTRLIDTPVRSGQRIYAPQCDLIVTSHVSAGAELIADGNIHVYGMMRGRALAGASGDRETQIFCTNLMAELVSIAGEYWLSDQIPAEFYGKAARLQLVENALTVQPLN
B2: ClpP (enzyme)
chain: not shown

Assays:
MinD(R3E) = target: T1, MinD(R3E); assay: 90° light scatter
ClpX = ClpX (Escherichia coli, UniProt P0A6H1 1-424); assay: negative-stain transmission electron microscopy

Binder	binding result (MinD(R3E))	binding result (ClpX)
B1	binds	
B2		binds
